This is an account of results in US20120322862.

The target of the data set is 4-1BB (TNFRSF9) extracellular domain (Homo sapiens) (UniProt Q07011). Kind of data set: competition. Conditions: all dT replaced by TrpdU (5-(N-tryptaminocarboxyamide)-2'-deoxyuridine); all C 5-methyl-dC; inhibition of 4-1BB ligand capture by receptor on Protein A beads (co-IP); PBS/0.02% Tween-20, 37 C.

“CCTGCACCCAGTGTCCCNGANGGGGNNNNNNAGNNGNANNNNGNAANGGNGGANGNNGANGGAGAGGAGGANGG [1684-40]”: the IC50 (as a rule, the midpoint of a concentration-inhibition curve) is 0.81 nM.
